± gives the standard deviation of the averaged measurements.
Test system: Saccharomyces cerevisiae
Test: protein stability index of tFT-peptide fusion (C-terminal peptide) (PSI (0-1 scale)); higher = more stable (slower turnover)
Details: genetic background: wild type; temperature: 30 C
Method: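 MPS profiling in S. cerevisiae of the yeast C-terminome library: the last 12 aa of each annotated ORF are fused to the C-terminus of a sfGFP-mCherry timer, after a GGGS linker. Cells are FACS-sorted into 8 mCherry/sfGFP bins and deep-sequenced. PSI runs from 0 (unstable) to 1 (stable); wild type and das1Δ backgrounds, two technical replicates each.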

Sequence	protein stability index
CSTRRSYLRYKK [YBR285W C-terminal 12 aa]	0.6634 ± 0.0014
CVNSASLNLKKD [MXR2 C-terminal 12 aa]	0.682 ± 0.035
CVTQACGRTIKM [YBR141W-A C-terminal 12 aa]	0.779 ± 0.13
DAIDNSDEITQD [IRR1 C-terminal 12 aa]	0.703 ± 0.064
DALYRIIYGNIL [TIP20 C-terminal 12 aa]	0.743 ± 0.037
DATRREVMTERK [LSM2 C-terminal 12 aa]	0.688 ± 0.059
DAYHKAAEENKD [MCT1 C-terminal 12 aa]	0.693 ± 0.016
DDEFGDLDAVFF [SNF6 C-terminal 12 aa]	0.739 ± 0.0056
DDIANNQSICCV [YPT11 C-terminal 12 aa]	0.649 ± 0.018
DDSKILIEHLSE [PET54 C-terminal 12 aa]	0.662 ± 0.04
DEFIKKNSDKIR [EXO84 C-terminal 12 aa]	0.64 ± 0.037
DEMQDFLKKHAS [SWI6 C-terminal 12 aa]	0.643 ± 0.033
DERLEQLKRLGI [HOM3 C-terminal 12 aa]	0.677 ± 0.019
DERRQPVSNLRM [YDL163W C-terminal 12 aa]	0.658 ± 0.01
DEVTYLMFSSIM [SPG1 C-terminal 12 aa]	0.658 ± 0.026
DEWLNLHINIVE [SHU2 C-terminal 12 aa]	0.717 ± 0.014
DEWRAKYGGQQV [MES1 C-terminal 12 aa]	0.676 ± 0.029
DFENKLKKKKRK [TMA64 C-terminal 12 aa]	0.715 ± 0.018
DIDDDVGEDSED [RMR1 C-terminal 12 aa]	0.662 ± 0.013
DIIYFRAGAGKN [OLA1 C-terminal 12 aa]	0.6666 ± 0.0055
DILKILSSSFHN [SPC29 C-terminal 12 aa]	0.709 ± 0.014

Sequence	protein stability index
DISVQQVKIASK [SPF1 C-terminal 12 aa]	0.6857 ± 0.0041
DKAAPALKKVKM [SFL1 C-terminal 12 aa]	0.71 ± 0.041
DKIDVVLKKISQ [ECM15 C-terminal 12 aa]	0.683 ± 0.067
DKLAQRLRALRG [DID2 C-terminal 12 aa]	0.684 ± 0.048
DKLSWSVRWEPR [URA4 C-terminal 12 aa]	0.721 ± 0.022
DLEFEEQREPKL [NVJ2 C-terminal 12 aa]	0.668 ± 0.011
DLKTGNAVKGEL [SSZ1 C-terminal 12 aa]	0.6914 ± 0.0056
DLLDMIDSLGKL [FSH3 C-terminal 12 aa]	0.694 ± 0.056
DNFMNNSDIFQN [TGL5 C-terminal 12 aa]	0.686 ± 0.0082
DPSKLRRVPVIQ [RGL1 C-terminal 12 aa]	0.687 ± 0.066
DQAKDASPNAKK [RGM1 C-terminal 12 aa]	0.673 ± 0.011
DRKQSQATNATN [ARP7 C-terminal 12 aa]	0.671 ± 0.0046
DRVQRAFPKPDT [GLG2 C-terminal 12 aa]	0.686 ± 0.032
DSEEKKSKKSKK [CBF5 C-terminal 12 aa]	0.6785 ± 0.0045
DSHEDMKRRRLE [ROX3 C-terminal 12 aa]	0.695 ± 0.0078
DSIRRIREKYSN [APP1 C-terminal 12 aa]	0.492 ± 0.013
DTFFDRVMKVLT [NAN1 C-terminal 12 aa]	0.6917 ± 0.0012
DVLDDLYRKLQR [CSE2 C-terminal 12 aa]	0.699 ± 0.02
DWQNGQVEDSIP [PEX14 C-terminal 12 aa]	0.672 ± 0.0079
DYKLRELIYDTI [AIP5 C-terminal 12 aa]	0.661 ± 0.018
DYSFVNTFRDYE [HAL9 C-terminal 12 aa]	0.736 ± 0.053

Sequence	protein stability index
EAAKKSEKKAKK [RPL34A C-terminal 12 aa]	0.689 ± 0.023
EAAKYFREQYKN [MET6 C-terminal 12 aa]	0.7172 ± 0.0068
EATIENLKRLKL [VAS1 C-terminal 12 aa]	0.642 ± 0.0087
ECPGGCPGVAFI [RTC1 C-terminal 12 aa]	0.685 ± 0.024
EDDITVVVVRVD [PTC7 C-terminal 12 aa]	0.673 ± 0.02
EDEFLINSDDEM [CUE5 C-terminal 12 aa]	0.716 ± 0.037
EDWSVEELIVDL [RPO26 C-terminal 12 aa]	0.71 ± 0.022
EEANEDEEEDDW [MYO5 C-terminal 12 aa]	0.706 ± 0.015
EEEAGYSDVEME [UTP5 C-terminal 12 aa]	0.698 ± 0.013
EEEKRRRKKGIR [SPT2 C-terminal 12 aa]	0.662 ± 0.0095
EEGEVVEEEAEK [HSP78 C-terminal 12 aa]	0.6852 ± 0.0044
EELEAEQIDVFS [PRP8 C-terminal 12 aa]	0.684 ± 0.02
EELFEEDSFYKY [NDT80 C-terminal 12 aa]	0.759 ± 0.019
EEPQLDLLDDVL [MTW1 C-terminal 12 aa]	0.709 ± 0.084
EESEKQLYTVLK [CUS1 C-terminal 12 aa]	0.676 ± 0.01
EETLEFDPTLLV [YBL062W C-terminal 12 aa]	0.692 ± 0.023
EFEENPNPTVEN [HSP42 C-terminal 12 aa]	0.702 ± 0.054
EFHQDFFSKYRN [ALT2 C-terminal 12 aa]	0.729 ± 0.027
EGENVRSKVERF [YKL070W C-terminal 12 aa]	0.704 ± 0.053
EGKEEIIYDSEG [RAD55 C-terminal 12 aa]	0.677 ± 0.047
EGSGEFVGEMEI [MRS6 C-terminal 12 aa]	0.714 ± 0.067

Sequence	protein stability index
EHTMLAKAQGHD [XPT1 C-terminal 12 aa]	0.6558 ± 0.0011
EIDGQFCIFQVV [YJL107C C-terminal 12 aa]	0.647 ± 0.031
EIKPYLRFTKSK [PRX1 C-terminal 12 aa]	0.718 ± 0.085
EIRKRRASSLKA [RPS6A C-terminal 12 aa]	0.646 ± 0.0092
EKIKRDLALKKG [PET100 C-terminal 12 aa]	0.661 ± 0.059
EKLAALVENAEV [PUF3 C-terminal 12 aa]	0.679 ± 0.04
EKLQLWHSMSND [YOR008C-A C-terminal 12 aa]	0.72 ± 0.033
ELKAHNINVVDK [PNC1 C-terminal 12 aa]	0.675 ± 0.044
ELNEEKRRSALP [SAK1 C-terminal 12 aa]	0.686 ± 0.016
ELQEKVEQLSKW [POL3 C-terminal 12 aa]	0.688 ± 0.026
ELYNIIVKSVPK [YRB2 C-terminal 12 aa]	0.695 ± 0.045
EMTHSLFKKYGI [CRC1 C-terminal 12 aa]	0.722 ± 0.047
ENFNEVFEAIRS [RSC3 C-terminal 12 aa]	0.709 ± 0.016
ENFSSALQSPIF [YDL152W C-terminal 12 aa]	0.754 ± 0.055
ENVLFYIGRVNK [COB C-terminal 12 aa]	0.669 ± 0.017
EPYNIKYSNSKK [MSD1 C-terminal 12 aa]	0.66695 ± 2.1e-06
EQLADYLIGVQY [PFY1 C-terminal 12 aa]	0.6754 ± 0.0032
EQQNFEKCNEYI [NPL6 C-terminal 12 aa]	0.655 ± 0.007
EQVRFKNINYKS [AZF1 C-terminal 12 aa]	0.673 ± 0.014
ERAYMYYLRNGK [NAM9 C-terminal 12 aa]	0.625 ± 0.021
